Data taken from patent US20250152742A1, “COMPOSITIONS AND METHODS FOR NEUROLOGICAL DISEASES” (Trames Bio, Inc., priority 2022, published 2025).

System: engineered chimeric receptor SEQ ID NO: 33 and its mutants (human α7-nAChR ligand binding domain / human GlyRα1 ion pore domain) in Lenti-X 293T cells
Assay: YFP fluorescence quenching anion reporter plate reader assay (percent quench, EC50)
Type: cell-based
Settings: for YFP fluorescence quenching using CNL001 (percent quench): receptor named in row; for YFP fluorescence quenching using Varenicline, 3 nM var: ligand Varenicline 3 nM; for YFP fluorescence quenching using Varenicline, 30 nM var: ligand Varenicline 30 nM; for YFP fluorescence quenching using Varenicline, 300 nM var: ligand Varenicline 300 nM; for YFP fluorescence quenching using Varenicline, 500 nM var: ligand Varenicline 500 nM; for YFP fluorescence quenching using Varenicline, 1 uM var: ligand Varenicline 1 uM
In short: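 Lenti-X 293T cells co-expressing an anion-quenchable YFP were transiently transfected with receptor DNA, then ligand was added in NaI-substituted buffer (pH 7.2) after 30 min at 37 °C. Fluorescence was read about 2 min; percent quench = mean of last 10 s over 15 s pre-ligand baseline.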

[1] = 1 nM CNL001, first column so headed
[2] = 1 nM CNL001, second column so headed
[3] = 1 nM brd (TC-5619/Bradanicline)
[4] = 3 nM brd (TC-5619/Bradanicline)
[5] = 10 nM CNL001, first column so headed
[6] = 10 nM CNL001, second column so headed
[7] = 10 nM brd (TC-5619/Bradanicline)
[8] = 30 nM brd (TC-5619/Bradanicline)
[9] = 50 nM CNL001, first column so headed
[10] = 50 nM CNL001, second column so headed
[11] = 100 nM CNL001, first column so headed
[12] = 100 nM CNL001, second column so headed
[13] = 100 nM brd (TC-5619/Bradanicline)
[14] = 300 nM brd (TC-5619/Bradanicline)
[15] = 1 uM CNL001, first column so headed
[16] = 1 uM CNL001, second column so headed

B1: CODA1053: engineered receptor: R101M, L131A in SEQ ID NO: 33 (protein)
chain: MRCSPGGVWLALAASLLHVSLQGEFQRKLYKELVKNYNPLERPVANDSQPLTVYFSLSLLQIMDVDEKNQVLTTNIWLQMSWTDHYLQWNVSEYPGVKTVMFPDGQIWKPDILLYNSADERFDATFHTNVAVNSSGHCQYLPPGIFKSSCPMDLKNFPMDVQTCKLKFGSWSYGGWSLDLQMQEADISGYIPNGEWDLVGIPGKRSERFYECCKEPYPDVTFTVTMRRRMGYYLIQMYIPSLLIVILSWISFWINMDAAPARVGLGITTVLTMTTQSSGSRASLPKVSYVKAIDIWMAVCLLFVFSALLEYAAVNFVSRQHKELLRFRRKRRHHKSPMLNLFQEDEAGEGRFNFSAYGMGPACLQAKDGISVKGANNSNTTNPPPAPSKSPEEMRKLFIQRAKKIDKISRIGFPMAFLIFNMFYWIIYKIVRREDVHNQ
modifications: synthetic sequence of chimeric LGIC
- YFP fluorescence quenching using CNL001 (percent quench) [1]: −8.554%
- YFP fluorescence quenching using CNL001 (percent quench) [2]: −13.711%
- YFP fluorescence quenching using TC-5619/Bradanicline (percent quench) [3]: 0.008%
- YFP fluorescence quenching using TC-5619/Bradanicline (percent quench) [4]: 43.21%
- YFP fluorescence quenching using CNL001 (percent quench) [5]: 39.631%
- YFP fluorescence quenching using CNL001 (percent quench) [6]: 66.809%
- YFP fluorescence quenching using TC-5619/Bradanicline (percent quench) [7]: 77.672%
- YFP fluorescence quenching using TC-5619/Bradanicline (percent quench) [8]: 76.277%
- YFP fluorescence quenching using CNL001 (percent quench) [9]: 82.122%
- YFP fluorescence quenching using CNL001 (percent quench) [10]: 82.031%
- YFP fluorescence quenching using ABT-126 (percent quench) (50 nM abt (ABT-126)): −27.01%
- YFP fluorescence quenching using CNL001 (percent quench) [11]: 83.312%
- YFP fluorescence quenching using CNL001 (percent quench) [12]: 83.986%
- YFP fluorescence quenching using ABT-126 (percent quench) (100 nM abt (ABT-126)): −18.76%
- YFP fluorescence quenching using TC-5619/Bradanicline (percent quench) [13]: 76.856%
- YFP fluorescence quenching using ABT-126 (percent quench) (300 nM abt (ABT-126)): −17.8%
- YFP fluorescence quenching using TC-5619/Bradanicline (percent quench) [14]: 75.32%
- YFP fluorescence quenching using CNL001 (percent quench) [15]: 84.363%
- YFP fluorescence quenching using CNL001 (percent quench) [16]: 83.877%
- YFP fluorescence quenching using ABT-126 (percent quench) (1 uM abt (ABT-126)): −6.55%
- YFP fluorescence quenching (percent quench) (10 uM ach (acetylcholine)): −3.98%
- YFP fluorescence quenching (percent quench) (100 uM ach (acetylcholine)): −11%
- YFP fluorescence quenching (percent quench) (300 uM ach (acetylcholine)): −7.92%
- YFP fluorescence quenching (percent quench) (500 uM ach (acetylcholine)): 7.36%
- YFP fluorescence quenching (percent quench) (1 mM ach (acetylcholine)): 57.28%
- YFP fluorescence quenching (percent quench) (3 mM ach (acetylcholine)): 60.54%
- YFP fluorescence quenching (percent quench) (10 mM ach (acetylcholine)): 79.46%
- YFP fluorescence quenching using Varenicline, 3 nM var (first column): 74.835
- YFP fluorescence quenching using Varenicline, 3 nM var (second column): 76.119
- YFP fluorescence quenching using Varenicline, 30 nM var (first column): 77.608
- YFP fluorescence quenching using Varenicline, 30 nM var (second column): 79.015
- YFP fluorescence quenching using Varenicline, 300 nM var (first column): 80.71
- YFP fluorescence quenching using Varenicline, 300 nM var (second column): 79.002
- YFP fluorescence quenching using Varenicline, 500 nM var (first column): 78.709
- YFP fluorescence quenching using Varenicline, 500 nM var (second column): 78.884
- YFP fluorescence quenching using Varenicline, 1 uM var (first column): 79.688
- YFP fluorescence quenching using Varenicline, 1 uM var (second column): 80

B2: CODA1055: engineered receptor: R101W, Y115E, Y210W in SEQ ID NO: 33 (protein)
chain: MRCSPGGVWLALAASLLHVSLQGEFQRKLYKELVKNYNPLERPVANDSQPLTVYFSLSLLQIMDVDEKNQVLTTNIWLQMSWTDHYLQWNVSEYPGVKTVWFPDGQIWKPDILLENSADERFDATFHTNVLVNSSGHCQYLPPGIFKSSCPMDLKNFPMDVQTCKLKFGSWSYGGWSLDLQMQEADISGYIPNGEWDLVGIPGKRSERFWECCKEPYPDVTFTVTMRRRMGYYLIQMYIPSLLIVILSWISFWINMDAAPARVGLGITTVLTMTTQSSGSRASLPKVSYVKAIDIWMAVCLLFVFSALLEYAAVNFVSRQHKELLRFRRKRRHHKSPMLNLFQEDEAGEGRFNFSAYGMGPACLQAKDGISVKGANNSNTTNPPPAPSKSPEEMRKLFIQRAKKIDKISRIGFPMAFLIFNMFYWIIYKIVRREDVHNQ
modifications: synthetic sequence of chimeric LGIC
- YFP fluorescence quenching using CNL001 (percent quench) [1]: −12.889%
- YFP fluorescence quenching using CNL001 (percent quench) [2]: −13.295%
- YFP fluorescence quenching using TC-5619/Bradanicline (percent quench) [3]: −8.113%
- YFP fluorescence quenching using TC-5619/Bradanicline (percent quench) [4]: −11.136%
- YFP fluorescence quenching using CNL001 (percent quench) [5]: −10.401%
- YFP fluorescence quenching using CNL001 (percent quench) [6]: −7.981%
- YFP fluorescence quenching using TC-5619/Bradanicline (percent quench) [7]: 38.755%
- YFP fluorescence quenching using TC-6683 (percent quench) (30 nM TC-6683): −30.056%
- YFP fluorescence quenching using TC-5619/Bradanicline (percent quench) [8]: 39.111%
- YFP fluorescence quenching using CNL001 (percent quench) [9]: −1.972%
- YFP fluorescence quenching using CNL001 (percent quench) [10]: −1.661%
- YFP fluorescence quenching using ABT-126 (percent quench) (50 nM abt (ABT-126)): −21.36%
- YFP fluorescence quenching using CNL001 (percent quench) [11]: 0.277%
- YFP fluorescence quenching using CNL001 (percent quench) [12]: 4.325%
- YFP fluorescence quenching using ABT-126 (percent quench) (100 nM abt (ABT-126)): −22.28%
- YFP fluorescence quenching using TC-5619/Bradanicline (percent quench) [13]: 61.378%
- YFP fluorescence quenching using TC-6683 (percent quench) (300 nM TC-6683): −30.801%
- YFP fluorescence quenching using ABT-126 (percent quench) (300 nM abt (ABT-126)): −14.63%
- YFP fluorescence quenching using TC-5619/Bradanicline (percent quench) [14]: 52.398%
- YFP fluorescence quenching using CNL001 (percent quench) [15]: 2.88%
- YFP fluorescence quenching using CNL001 (percent quench) [16]: 3.259%
- YFP fluorescence quenching using ABT-126 (percent quench) (1 uM abt (ABT-126)): −7.34%
- YFP fluorescence quenching using TC-6683 (percent quench) (3 uM TC-6683): −25.558%
- YFP fluorescence quenching using TC-6683 (percent quench) (30 uM TC-6683): −18.295%
- YFP fluorescence quenching using TC-6683 (percent quench) (100 uM TC-6683): −17.554%
- YFP fluorescence quenching (percent quench) (100 uM ach (acetylcholine)): −15.63%
- YFP fluorescence quenching (percent quench) (300 uM ach (acetylcholine)): −12.05%
- YFP fluorescence quenching (percent quench) (500 uM ach (acetylcholine)): −12.87%
- YFP fluorescence quenching (percent quench) (1 mM ach (acetylcholine)): −11.55%
- YFP fluorescence quenching (percent quench) (3 mM ach (acetylcholine)): 12.68%
- YFP fluorescence quenching (percent quench) (10 mM ach (acetylcholine)): 37.58%
- YFP fluorescence quenching using Varenicline, 3 nM var (first column): 0.468
- YFP fluorescence quenching using Varenicline, 3 nM var (second column): −10.015
- YFP fluorescence quenching using Varenicline, 30 nM var (first column): −15.532
- YFP fluorescence quenching using Varenicline, 30 nM var (second column): −14.462
- YFP fluorescence quenching using Varenicline, 300 nM var (first column): −17.027
- YFP fluorescence quenching using Varenicline, 300 nM var (second column): −15.59
- YFP fluorescence quenching using Varenicline, 500 nM var (first column): −13.343
- YFP fluorescence quenching using Varenicline, 500 nM var (second column): −10.702
- YFP fluorescence quenching using Varenicline, 1 uM var (first column): −6.604
- YFP fluorescence quenching using Varenicline, 1 uM var (second column): −7.612
